The values that follow come from PMC9224930, “VH3-53/66-Class RBD-Specific Human Monoclonal Antibody iB20 Displays Cross-Neutralizing Activity against Emerging SARS-CoV-2 Lineages” (Journal of Personalized Medicine, 2022).

In the assay the target is T1, SARS-CoV-2 Wuhan-1 receptor-binding domain (RBD) (SARS-CoV-2 (Wuhan-1), UniProt P0DTC2).
T1 construct: also called Wuhan RBD; w.t; RBD
As to the kind of experiment: BLI; pairwise competition on NTA biosensors (Octet RED96): Wuhan RBD immobilised via its 6xHis tag (200 s), first antibody added (600 s), then the second (600 s). Particulars: both partners purified. In general terms: BLI is a label-free optical method that tracks binding on a fibre tip over time.

B1: nAb CV30 (antibody, V domains shown)
VH: QVQLVESGGGLIQPGGSLRLSCAASGVIVSSNYMSWVRQAPGKGLEWVSVIYSGGSTYYADSVKGRFTISRDNSKNTLYLQMNSLRAEDTAVYYCARDLDVSGGMDVWGQGTTVTVSS
VL: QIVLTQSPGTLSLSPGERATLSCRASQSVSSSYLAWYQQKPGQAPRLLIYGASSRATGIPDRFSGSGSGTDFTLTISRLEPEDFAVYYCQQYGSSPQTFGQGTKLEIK
notes: also called recombinant CV30
Regarding B1, the binding result is listed as “binds”.
